The results in this text go back to patent US20180291082A1 (IMMATICS BIOTECHNOLOGIES, published 2018).

One test addresses T1, HLA-B*07:02 (human).
T1 construct: Peptide-receptive MHC monomer made by UV cleavage of a UV-sensitive peptide
Kind of test: UV-ligand exchange, anti-b2m ELISA; exchange yield grade (+ >10%, ++ >20%, +++ >50, ++++ >75%). From the text:
(§1) Candidate peptides for T cell based therapies according to the present invention were further tested for their MHC binding capacity (affinity). The individual peptide-MHC complexes were produced by UV-ligand exchange, where a UV-sensitive peptide is cleaved upon UV-irradiation, and exchanged with the peptide of interest as analyzed. Only peptide candidates that can effectively bind and stabilize the peptide-receptive MHC molecules prevent dissociation of the MHC complexes. To determine the yield of the exchange reaction, an ELISA was performed based on the detection of the light chain (β2m) of stabilized MHC complexes. The assay was performed as generally described in Rodenko et al. (Rodenko et al., 2006).
(§2) 96 well MAXISorp plates (NUNC) were coated over night with 2 ug/ml streptavidin in PBS at room temperature, washed 4× and blocked for 1 h at 37° C. in 2% BSA containing blocking buffer. Refolded HLA-A*02:01/MLA-001 monomers served as standards, covering the range of 15-500 ng/ml. Peptide-MHC monomers of the UV-exchange reaction were diluted 100-fold in blocking buffer. Samples were incubated for 1 h at 37° C., washed four times, incubated with 2 ug/ml HRP conjugated anti-β2m for 1 h at 37° C., washed again and detected with TMB solution that is stopped with […]. Absorption was measured at 450 nm. Candidate peptides that show a high exchange yield (preferably higher than 50%, most preferred higher than 75%) are generally preferred for a generation and production of antibodies or fragments thereof, and/or T cell receptors or fragments thereof, as they show sufficient avidity to the MHC molecules and prevent dissociation of the MHC complexes.
(In an ELISA, binding on a coated surface is turned into a signal by an enzyme label.)
For VPDGVSKVL, the peptide exchange yield was in the range of 20 to 50%.
HPQVVILSL showed a peptide exchange yield of 50 to 75%.
On to KPSSKALGTSL, for which the peptide exchange yield is 50 to 75%.
Same read-out and setting: as for RPAPADSAL, the figure is 50 to 75%; as for HDPDVGSNSL, 20 to 50%.
In turn, SPSPGKDPTL gave a peptide exchange yield of 20 to 50%.
The molecule VVHPRTLLL registered a peptide exchange yield of 20 to 50%.
On the same count and under the same terms, to MPMISIPRV belongs 20 to 50%; to GPGTRLSL, 20 to 50%; to SPGDKRLAA, 50 to 75%.
The same measure, in the same setting: as for APAAVPSAPA, the figure is 50 to 75%; as for FPYPYAERL, 20 to 50%.
Consider YPLTGDTRL, for which the peptide exchange yield was in the range of 20 to 50%.
For the molecule TPIAKVSEL, the peptide exchange yield was 50 to 75%.
On to ISTPSEVSTPL, for which the peptide exchange yield was in the range of 20 to 50%.
As to SPIKVPLLL, the peptide exchange yield fell in the range of 50 to 75%.
Molecule RVPSYTLIL had a peptide exchange yield of 50 to 75%.
On to APKLFAVAF, for which the peptide exchange yield is 50 to 75%.
Still for that read-out and setting: to NPYEGRVEV belongs 20 to 50%; to RPASSLRP, 20 to 50%.
Consider FPTEVTPHAF, for which the peptide exchange yield was 20 to 50%.
For VPERGEPEL, the peptide exchange yield was in the range of 20 to 50%.
For IPSRLLAIL, the peptide exchange yield lay within 50 to 75%.
On to IPTDKLLVI, for which the peptide exchange yield lay in the range of 20 to 50%.
In turn, FPAHPSLLL gave a peptide exchange yield of 20 to 50%.
Molecule IPEPSAQQL had a peptide exchange yield of 20 to 50%.
Regarding SPMWHVQQL, the peptide exchange yield fell in the range of 50 to 75%.
Molecule YPSEVEHMF gave a peptide exchange yield of 20 to 50%.
In turn, FELPTGAGLQL showed a peptide exchange yield of 20 to 50%.

The target in another test is T2, HLA-A*01:01 (human).
T2 construct: Peptide-receptive MHC monomer made by UV cleavage of a UV-sensitive peptide
The description is as above.
From the text: as §1, §2
YSHAAGQGTGLY came in with a peptide exchange yield of 50 to 75%.
Consider FASDLLHLY, for which the peptide exchange yield lay within 20 to 50%.
The molecule RSPNNFLSY displayed a peptide exchange yield of 20 to 50%.
VTDLEMPHY registered a peptide exchange yield of over 75%.
In the case of LITGDPKAAYDY, the peptide exchange yield lay in the range of 20 to 50%.
Same read-out and setting: to ATVGYFIFY belongs 20 to 50%; to FADKIHLAY, 50 to 75%.
Still for that read-out and setting: to RSDPGGGGLAY belongs 50 to 75%.
YAAYIIHAY had a peptide exchange yield of 50 to 75%.
ITDFNNIRY yielded a peptide exchange yield of 50 to 75%.
FSDKELAAY: the peptide exchange yield was over 75%.
For FITAQNHGY, the peptide exchange yield lay in the range of 20 to 50%.
YSDLHAFYY registered a peptide exchange yield of over 75%.
The molecule VLDSHIHAY had a peptide exchange yield of 50 to 75%.
NSDLKYNAL showed a peptide exchange yield of 20 to 50%.
Still for that read-out and setting: as for TPVTEFSLNTY, the figure is 20 to 50%; as for SILGSDVRVPSY, 20 to 50%; as for ASSTDSASYY, 50 to 75%.
LTDSFPLKV registered a peptide exchange yield of 50 to 75%.
Take VLDLSTNVY: the peptide exchange yield is 50 to 75%.
